Data on nine molecules can be found in patent US11827699 (dated 2023).

Assay in all cases: SPR
(Surface plasmon resonance follows binding to a sensor surface in real time, without labels.)

Assay [1] addresses T1, human FcγRIIb (human, UniProt P31994).
T1 chain: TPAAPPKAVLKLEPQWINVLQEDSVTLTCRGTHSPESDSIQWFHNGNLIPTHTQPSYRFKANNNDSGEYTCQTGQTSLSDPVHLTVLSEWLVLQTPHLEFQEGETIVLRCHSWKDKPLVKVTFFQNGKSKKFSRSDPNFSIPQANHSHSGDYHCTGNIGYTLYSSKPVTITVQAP

Assay [2] concerns the target T2, human FcγRIa (human, UniProt P12314).
T2 chain: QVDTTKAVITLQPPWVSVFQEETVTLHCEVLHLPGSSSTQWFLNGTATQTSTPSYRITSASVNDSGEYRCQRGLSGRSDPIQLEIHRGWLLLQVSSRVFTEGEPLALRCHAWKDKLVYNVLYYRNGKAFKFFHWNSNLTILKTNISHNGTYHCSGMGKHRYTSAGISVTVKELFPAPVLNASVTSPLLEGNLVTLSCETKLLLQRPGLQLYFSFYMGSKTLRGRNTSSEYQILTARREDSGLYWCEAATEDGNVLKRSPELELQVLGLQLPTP

In assay [3] the target is T3, human FcγRIIa R131 (human, UniProt P12318).
T3 chain: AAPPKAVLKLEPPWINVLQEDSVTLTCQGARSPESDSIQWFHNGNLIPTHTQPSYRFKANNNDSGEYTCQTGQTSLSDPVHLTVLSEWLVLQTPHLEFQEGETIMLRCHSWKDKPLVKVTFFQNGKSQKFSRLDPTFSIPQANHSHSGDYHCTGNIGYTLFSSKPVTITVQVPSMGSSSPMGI

For assay [4], the target named is human FcγRIIIa V158 (human, UniProt P08637).
Chain of human FcγRIIIa V158 (P08637 17-208 F176V): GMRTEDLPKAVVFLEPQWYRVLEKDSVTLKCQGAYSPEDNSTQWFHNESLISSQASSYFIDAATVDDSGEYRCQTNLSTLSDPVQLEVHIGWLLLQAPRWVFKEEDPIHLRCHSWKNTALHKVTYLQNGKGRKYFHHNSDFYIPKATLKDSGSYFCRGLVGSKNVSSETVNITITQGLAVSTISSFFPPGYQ
Assay [5] has as its target T4, human FcγRIIa H131 (human, UniProt P12318).
T4 chain: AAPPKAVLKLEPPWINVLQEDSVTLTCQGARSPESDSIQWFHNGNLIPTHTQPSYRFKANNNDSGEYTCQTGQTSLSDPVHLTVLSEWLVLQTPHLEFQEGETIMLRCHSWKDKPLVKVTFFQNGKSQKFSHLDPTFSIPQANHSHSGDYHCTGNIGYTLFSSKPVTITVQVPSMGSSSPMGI

B1: IL6R-BP483 (antibody)
chain 1: QVQLQESGPGLVKPSETLSLTCAVSGHSISHDHAWSWVRQPPGEGLEWIGFISYSGITNYNPSLQGRVTISRDNSKNTLYLQMNSLRAEDTAVYYCARSLARTTAMDYWGEGTLVTVSSASTKGPSVFPLAPSSKSTSGGTAALGCLVKDYFPEPVTVSWNSGALTSGVHTFPAVLQSSGLYSLSSVVTVPSSSLGTQTYICNVNHKPSNTKVDKKVEPKSCDKTHTCPPCPAPDLLGDDSVFLFPPKPKDTLMISRTPEVTCVVVDLAEEDGEVKFNWYVDGVEVHNAKTKPREEQYNSTYRVVSVLTVLHQDWLNGKEYKCKVSNKALPAPIEKTISKAKGQPREPQVYTLPPSRDELTKNQVSLTCLVKGFYPSDIAVEWESNGQPENNYKTTPPVLDSDGSFFLYSKLTVDKSRWQQGNVFSCSVMHEALHNHYTQESLSLSP
chain 2: not shown
Broadly, the Kd is the constant that tells how readily two partners part at equilibrium. Low values mean higher affinity, high ones lower affinity. Regarding B1, the Kd in assay [1] is 78 nM; in assay [2], 1.3 nM; in assay [3], 1300 nM; in assay [4], 25000 nM; in assay [5], 18000 nM.

B2: IL6R-BP262 (antibody)
chain 1: QVQLQESGPGLVKPSETLSLTCAVSGHSISHDHAWSWVRQPPGEGLEWIGFISYSGITNYNPSLQGRVTISRDNSKNTLYLQMNSLRAEDTAVYYCARSLARTTAMDYWGEGTLVTVSSASTKGPSVFPLAPSSKSTSGGTAALGCLVKDYFPEPVTVSWNSGALTSGVHTFPAVLQSSGLYSLSSVVTVPSSSLGTQTYICNVNHKPSNTKVDKKVEPKSCDKTHTCPPCPAPELLGDDSVFLFPPKPKDTLMISRTPEVTCVVVDVSEEDGEVKFNWYVDGVEVHNAKTKPREEQYNSTYRVVSVLTVLHQDWLNGKEYKCKVSNKALPAPIEKTISKAKGQPREPQVYTLPPSRDELTKNQVSLTCLVKGFYPSDIAVEWESNGQPENNYKTTPPVLDSDGSFFLYSKLTVDKSRWQQGNVFSCSVMHEALHNHYTQESLSLSP
chain 2: not shown
B2: the equilibrium dissociation constant (Kd) turned out to be 120 nM in assay [1]; 10 nM in assay [2]; 2000 nM in assay [3]; 56000 nM in assay [4]; 45000 nM in assay [5].

B3: IL6R-BP503 (antibody)
chain 1: QVQLQESGPGLVKPSETLSLTCAVSGHSISHDHAWSWVRQPPGEGLEWIGFISYSGITNYNPSLQGRVTISRDNSKNTLYLQMNSLRAEDTAVYYCARSLARTTAMDYWGEGTLVTVSSASTKGPSVFPLAPSSKSTSGGTAALGCLVKDYFPEPVTVSWNSGALTSGVHTFPAVLQSSGLYSLSSVVTVPSSSLGTQTYICNVNHKPSNTKVDKKVEPKSCDKTHTCPPCPAPDLLGDDSVFLFPPKPKDTLMISRTPEVTCVVIDVAEEDGEVKFNWYVDGVEVHNAKTKPREEQDNSTYRVVSVLTVLHQDWLNGKEYKCKVSNKGLPRPIEKTISKAKGQPREPQVYTLPPSRDELTKNQVSLTCLVKGFYPSDIAVEWESNGQPENNYKTTPMVLDSDGSFFLYSKLTVDKSRWQQGNVFSCSVMHEALHNHYTQESLSLSP
chain 2: not shown
Regarding B3, the Kd was 1.7 nM in assay [1]; 1.2 nM in assay [2]; 57 nM in assay [3]; 21000 nM in assay [4]; 860 nM in assay [5].

B4: IL6R-BP484 (antibody)
chain 1: QVQLQESGPGLVKPSETLSLTCAVSGHSISHDHAWSWVRQPPGEGLEWIGFISYSGITNYNPSLQGRVTISRDNSKNTLYLQMNSLRAEDTAVYYCARSLARTTAMDYWGEGTLVTVSSASTKGPSVFPLAPSSKSTSGGTAALGCLVKDYFPEPVTVSWNSGALTSGVHTFPAVLQSSGLYSLSSVVTVPSSSLGTQTYICNVNHKPSNTKVDKKVEPKSCDKTHTCPPCPAPDLLGDDSVFLFPPKPKDTLMISRTPEVTCVVVDVAEDDGEVKFNWYVDGVEVHNAKTKPREEQYNSTYRVVSVLTVLHQDWLNGKEYKCKVSNKALPAPIEKTISKAKGQPREPQVYTLPPSRDELTKNQVSLTCLVKGFYPSDIAVEWESNGQPENNYKTTPPVLDSDGSFFLYSKLTVDKSRWQQGNVFSCSVMHEALHNHYTQESLSLSP
chain 2: not shown
In the case of B4, the Kd in assay [1] was 46 nM; in assay [2], 0.82 nM; in assay [3] it was 780 nM; in assay [4], 25000 nM; in assay [5], 11000 nM.

B5: IL6R-BP496 (antibody)
chain 1: QVQLQESGPGLVKPSETLSLTCAVSGHSISHDHAWSWVRQPPGEGLEWIGFISYSGITNYNPSLQGRVTISRDNSKNTLYLQMNSLRAEDTAVYYCARSLARTTAMDYWGEGTLVTVSSASTKGPSVFPLAPSSKSTSGGTAALGCLVKDYFPEPVTVSWNSGALTSGVHTFPAVLQSSGLYSLSSVVTVPSSSLGTQTYICNVNHKPSNTKVDKKVEPKSCDKTHTCPPCPAPDLLGDDSVFLFPPKPKDTLMISRTPEVTCVVIDVAEEDGEVKFNWYVDGVEVHNAKTKPREEQDNSTYRVVSVLTVLHQDWLNGKEYKCKVSNKALPAPIEKTISKAKGQPREPQVYTLPPSRDELTKNQVSLTCLVKGFYPSDIAVEWESNGQPENNYKTTPPVLDSDGSFFLYSKLTVDKSRWQQGNVFSCSVMHEALHNHYTQESLSLSP
chain 2: not shown
Regarding B5, the Kd in assay [1] worked out at 18 nM; in assay [2], 1.2 nM; in assay [3] it was 470 nM; in assay [4], 30000 nM; in assay [5], 3700 nM.

B6: IL6R-BP479 (antibody)
chain 1: QVQLQESGPGLVKPSETLSLTCAVSGHSISHDHAWSWVRQPPGEGLEWIGFISYSGITNYNPSLQGRVTISRDNSKNTLYLQMNSLRAEDTAVYYCARSLARTTAMDYWGEGTLVTVSSASTKGPSVFPLAPSSKSTSGGTAALGCLVKDYFPEPVTVSWNSGALTSGVHTFPAVLQSSGLYSLSSVVTVPSSSLGTQTYICNVNHKPSNTKVDKKVEPKSCDKTHTCPPCPAPDLLGDDSVFLFPPKPKDTLMISRTPEVTCVVIDLAEEDGEVKFNWYVDGVEVHNAKTKPREEQYNSTYRVVSVLTVLHQDWLNGKEYKCKVSNKALPAPIEKTISKAKGQPREPQVYTLPPSRDELTKNQVSLTCLVKGFYPSDIAVEWESNGQPENNYKTTPPVLDSDGSFFLYSKLTVDKSRWQQGNVFSCSVMHEALHNHYTQESLSLSP
chain 2: not shown
B6: the Kd turned out to be 56 nM in assay [1]; 5.3 nM in assay [2]; 900 nM in assay [3]; 40000 nM in assay [4]; 15000 nM in assay [5].

B7: IL6R-BP481 (antibody)
chain 1: QVQLQESGPGLVKPSETLSLTCAVSGHSISHDHAWSWVRQPPGEGLEWIGFISYSGITNYNPSLQGRVTISRDNSKNTLYLQMNSLRAEDTAVYYCARSLARTTAMDYWGEGTLVTVSSASTKGPSVFPLAPSSKSTSGGTAALGCLVKDYFPEPVTVSWNSGALTSGVHTFPAVLQSSGLYSLSSVVTVPSSSLGTQTYICNVNHKPSNTKVDKKVEPKSCDKTHTCPPCPAPDLLGDDSVFLFPPKPKDTLMISRTPEVTCVVIDVAEEDGEVKFNWYVDGVEVHNAKTKPREEQYNSTYRVVSVLTVLHQDWLNGKEYKCKVSNKALPAPIEKTISKAKGQPREPQVYTLPPSRDELTKNQVSLTCLVKGFYPSDIAVEWESNGQPENNYKTTPPVLDSDGSFFLYSKLTVDKSRWQQGNVFSCSVMHEALHNHYTQESLSLSP
chain 2: not shown
With B7, the equilibrium dissociation constant (Kd) was determined as 19 nM in assay [1]; 1 nM in assay [2]; 400 nM in assay [3]; 24000 nM in assay [4]; 6800 nM in assay [5].

B8: IL6R-BP491 (antibody)
chain 1: QVQLQESGPGLVKPSETLSLTCAVSGHSISHDHAWSWVRQPPGEGLEWIGFISYSGITNYNPSLQGRVTISRDNSKNTLYLQMNSLRAEDTAVYYCARSLARTTAMDYWGEGTLVTVSSASTKGPSVFPLAPSSKSTSGGTAALGCLVKDYFPEPVTVSWNSGALTSGVHTFPAVLQSSGLYSLSSVVTVPSSSLGTQTYICNVNHKPSNTKVDKKVEPKSCDKTHTCPPCPAPELLGDDSVFLFPPKPKDTLMISRTPEVTCVVIDVAEEDGEVKFNWYVDGVEVHNAKTKPREEQDNSTYRVVSVLTVLHQDWLNGKEYKCKVSNKALPRPIEKTISKAKGQPREPQVYTLPPSRDELTKNQVSLTCLVKGFYPSDIAVEWESNGQPENNYKTTPPVLDSDGSFFLYSKLTVDKSRWQQGNVFSCSVMHEALHNHYTQESLSLSP
chain 2: not shown
Take B8: the Kd in assay [1] was 3 nM; in assay [2], 5.3 nM; in assay [3] it was 120 nM; in assay [4], 21000 nM; in assay [5], 2200 nM.

B9: IL6R-BP511 (antibody)
chain 1: QVQLQESGPGLVKPSETLSLTCAVSGHSISHDHAWSWVRQPPGEGLEWIGFISYSGITNYNPSLQGRVTISRDNSKNTLYLQMNSLRAEDTAVYYCARSLARTTAMDYWGEGTLVTVSSASTKGPSVFPLAPSSKSTSGGTAALGCLVKDYFPEPVTVSWNSGALTSGVHTFPAVLQSSGLYSLSSVVTVPSSSLGTQTYICNVNHKPSNTKVDKKVEPKSCDKTHTCPPCPAPELLGDDSVFLFPPKPKDTLMISRTPEVTCVVIDVAEEDGPVKFNWYVDGVEVHNAKTKPREEQDNSTYRVVSVLTVLHQDWLNGKEYKCKVSNKALPRPIEKTISKAKGQPREPQVYTLPPSRDELTKNQVSLTCLVKGFYPSDIAVEWESNGQPENNYKTTPPVLDSDGSFFLYSKLTVDKSRWQQGNVFSCSVMHEALHNHYTQESLSLSP
chain 2: not shown
Turning to B9, the Kd in assay [1] amounted to 3.5 nM; in assay [2], 6 nM; in assay [3], 180 nM; in assay [4] it was 71000 nM; in assay [5] it was 4300 nM.
